Measurements published in paper PMC12065894.

How the values were obtained:
[1] = biological target: dasTMPRSS2 (active TMPRSS2 ectodomain with DDDDK zymogen activation motif) (human) (UniProt O15393)
[2] = biological target: dasTMPRSS11D (active, autocleaved TMPRSS11D with DDDDK zymogen activation motif) (human) (UniProt O60235)
[3] = biological target: dasTMPRSS2 (active TMPRSS2 ectodomain with DDDDK zymogen activation motif) (human) (UniProt O15393); remark: listed apart in the source

dasTMPRSS11D (active, autocleaved TMPRSS11D with DDDDK zymogen activation motif) (human), sequence (O60235 other isoform, or with tags, fused parts or gaps L182D | S183D | E184D | Q185D | R186K, chain 1 of 2): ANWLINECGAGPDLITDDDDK
dasTMPRSS11D (active, autocleaved TMPRSS11D with DDDDK zymogen activation motif) (human), sequence (O60235 187-418, chain 2 of 2): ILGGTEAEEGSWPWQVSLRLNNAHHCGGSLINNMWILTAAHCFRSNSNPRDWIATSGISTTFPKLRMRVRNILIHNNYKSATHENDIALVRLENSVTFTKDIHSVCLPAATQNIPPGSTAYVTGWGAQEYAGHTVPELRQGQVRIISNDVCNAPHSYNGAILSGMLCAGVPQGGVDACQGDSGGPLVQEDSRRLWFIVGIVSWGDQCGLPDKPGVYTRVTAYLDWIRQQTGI
dasTMPRSS2 (active TMPRSS2 ectodomain with DDDDK zymogen activation motif) (human), sequence (O15393 other isoform, or with tags, fused parts or gaps, chain 1 of 2): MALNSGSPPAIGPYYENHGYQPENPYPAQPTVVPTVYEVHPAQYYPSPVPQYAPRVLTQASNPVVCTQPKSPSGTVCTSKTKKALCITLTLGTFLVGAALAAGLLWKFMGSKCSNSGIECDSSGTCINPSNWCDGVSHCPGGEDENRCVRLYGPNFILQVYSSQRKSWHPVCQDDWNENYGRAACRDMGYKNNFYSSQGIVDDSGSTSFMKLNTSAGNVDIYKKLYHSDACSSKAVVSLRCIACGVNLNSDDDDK
dasTMPRSS2 (active TMPRSS2 ectodomain with DDDDK zymogen activation motif) (human), sequence (O15393 256-492, chain 2 of 2): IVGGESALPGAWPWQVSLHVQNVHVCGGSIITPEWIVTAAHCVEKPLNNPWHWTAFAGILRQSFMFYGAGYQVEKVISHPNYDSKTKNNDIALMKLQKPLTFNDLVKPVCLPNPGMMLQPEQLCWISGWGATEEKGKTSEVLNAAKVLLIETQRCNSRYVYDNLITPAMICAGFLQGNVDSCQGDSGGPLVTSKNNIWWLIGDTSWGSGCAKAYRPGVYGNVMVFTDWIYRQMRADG

Peptidomimetic 3, Ac-Glu-Glu-Arg-kbt (peptide)
IC50 of inhibition of dasTMPRSS2 (1.5 nM) peptidase activity on Boc-QAR-AMC (100 µM) [1]: 3.2 nM | IC50 of inhibition of dasTMPRSS11D (15 nM) peptidase activity on Boc-QAR-AMC (100 µM) [2]: 7.1 nM

Peptidomimetic 4, Ac-Glu-D-Glu-Arg-kbt (peptide)
IC50 of inhibition of dasTMPRSS2 (1.5 nM) peptidase activity on Boc-QAR-AMC (100 µM) [1]: 42 nM | IC50 of inhibition of dasTMPRSS11D (15 nM) peptidase activity on Boc-QAR-AMC (100 µM) [2]: 111 nM

Peptidomimetic 5, Ac-Glu-Orn-Arg-kbt (peptide)
IC50 of inhibition of dasTMPRSS2 (1.5 nM) peptidase activity on Boc-QAR-AMC (100 µM) [1]: 6.2 nM | IC50 of inhibition of dasTMPRSS11D (15 nM) peptidase activity on Boc-QAR-AMC (100 µM) [2]: 2100 nM

Peptidomimetic 1, Ac-Glu-Gln-Arg-kbt (peptide)
IC50 of inhibition of dasTMPRSS2 (1.5 nM) peptidase activity on Boc-QAR-AMC (100 µM), 10 min pre-incubation [3]: 2.2 nM

Peptidomimetic 2, Ac-Gln-Ser-Arg-kbt (peptide)
IC50 of inhibition of dasTMPRSS2 (1.5 nM) peptidase activity on Boc-QAR-AMC (100 µM), 10 min pre-incubation [3]: 2.1 nM
